We go through seven molecules from paper doi:10.1101/2020.05.20.106609 (bioRxiv, 2020).

Positions count from the first letter of the chain named.

B1: MD17 (scFv, V domains shown)
VH: EVQLLESGGGLVQPGGSLRLSCSASGFTFSTYVMNWVRQAPGKGLEHVSGISSDGGITYYADSVKGRFTISRDNSKNTLYLQMSSLRVEDTAVYYCVKDQDSSSWYDAFDIWGQGTMVTVSS
VL: DIVMTQSPSSLSASVGDRVTITCRASQSISNYLNWYQQKLGKAPKLLTYAASRLQSGVPSRFSASGSGTEFTLTISSLQPEDFATYYCQQSYTTPLTFGGGTKLEIK
B2: MD29 (scFv, V domains shown)
VH: B1 VH with E1Q, V2M, L5V, E6Q, L45P
VL: NIRLTQSPSSLSASVGDRVTITCRATQSISSYLNWYQQKPGKAPNLLIYAASSLQSGVPSRFSGSGSGTDFTLTISSLQPEDFATYYCHQTYTSPYTFGQGTKLEIK
B3: MD62 (scFv, V domains shown)
VH: EVQLVQSGGGLIQPGGSLRLSCAASGVTVSSNYMTWVRQAPGKGLEWVSLIYSGGSTYYADSVKGRFTISRDNSKNTLYLQMNSLRAEDTAVYYCARDLQYYGMDVWGQGTMVTVSS
VL: AIRMTQSPSSVSASVGDRVTITCRASQDIGSWLGWYQQKPGKAPKLLIYAASSLAGGVPSRFSGSGSGTDFTLTISSLQPEDFATYYCQQANSFPLTFGGGTKLEIK
B4: MD47 (scFv, V domains shown)
V domain 1: QMQLVQSGGGLVQPGGSLRLSCAASGFTFSSYAMSWVRQAPGKGLEWVSAISSGGSTYYADSVKGRFTISRDNSKNTLYLQMNSLRAEDTAVYYCAKDLVTAPSYEAFDIWGQGTMITVSS
V domain 2: NFMLTQPPSVSVAPGKTARITCGGNNIGSKSVHWYQQKPGQAPVLVIYYDSDRPSGIPERFSGSNSGNTATLTISRVEAGDEADYYCQVWDSSSHHHVVFGGGTKGTVL
B5: MD45 (scFv, V domains shown)
VH: EVQLVQSGGGLVQPGGSLRLSCAASGFTVSSNYMTWVRQAPGKGLEWVSVIYSGGSTFYADSVKGRFTISRHNSKNTLYLQMNSLRAEDTAVYYCARDLSVRGGMDVWGQGTMVTVSS
VL: EIVLTQSPGTLSLSPGERATLSCRASQSVNSSYLAWYQQKPGQAPRLLIYGASNRATGIPDRFSGSGSGTDFTLTISRLEPEDFAVYYCQQYGVSPEIIFGQGTRLEIK
B6: MD67 (scFv, V domains shown)
VH: B5 VH with Q6E, M113T
VL: not shown
B7: MD63 (scFv, V domains shown)
VH: QVTLKESGGGVVQPGRSLRLSCAASGFTFSSYAMHWVRQAPGKGLEHVSAISSDGGITYFADSVKGRFTISRDNSRNTLFLQMSSLRVEDTAVYYCVKDQDSNSWYDAFDIWGRGTMVTVSS
VL: not shown

The first assay deals with T1, SARS-CoV-2 spike receptor binding domain (RBD) (SARS-CoV-2 Wuhan-Hu-1 (QHD43416), UniProt P0DTC2). The assay can be described thus: cell-based or functional assay.
B1: the “NT50, plaque reduction neutralization test (PRNT), SARS-CoV-2 on Vero E6 cells” value stood at 43 µg/mL.

For the molecule B2, the “NT50, plaque reduction neutralization test (PRNT), SARS-CoV-2 on Vero E6 cells” value came out at 13 µg/mL.

On to B3, for which the “NT50, plaque reduction neutralization test (PRNT), SARS-CoV-2 on Vero E6 cells” value came out at 1.6 µg/mL.

For B4, the “NT50, plaque reduction neutralization test (PRNT), SARS-CoV-2 on Vero E6 cells” value was found to be 13 µg/mL.

As to B5, the “NT50, plaque reduction neutralization test (PRNT), SARS-CoV-2 on Vero E6 cells” value came to 2.1 µg/mL.

For the molecule B6, the “NT50, plaque reduction neutralization test (PRNT), SARS-CoV-2 on Vero E6 cells” value worked out at 1.9 µg/mL.

Another assay concerns the target SARS-CoV-2 spike S1 subunit (SARS-CoV-2 Wuhan-Hu-1 (QHD43416), UniProt P0DTC2). Kind of assay: ELISA. For orientation: An ELISA detects its analyte on a solid surface through an enzyme-linked reagent.
One may read the Kd as the equilibrium constant for the complex coming apart. As for B5, binding was put at a Kd of 12.7 nM.

The molecule B7 registered a Kd of 15.6 nM.

Another assay addresses SARS-CoV-2 spike N terminal domain (NTD) (SARS-CoV-2 Wuhan-Hu-1 (QHD43416), UniProt P0DTC2). Kind of assay: ELISA.
Turning to B1, the binding result is given as “no binding”.

Regarding B2, the binding result is reported as “no binding”.

Consider B3, for which the binding result is reported as “no binding”.

Take B4: the binding result is given as “no binding”.

For B5, the binding result is recorded as “no binding”.

B6: the binding result is “no binding”.

Turning to B7, the binding result is reported as “no binding”.

The next assay has as its target T1, SARS-CoV-2 spike receptor binding …. The assay can be described thus: BLI. For orientation: BLI is a label-free optical method that tracks binding on a fibre tip over time.
On to B2, for which the dissociation constant Kd was in the range of 0.4 to 5.8 nM.

B6 showed a Kd of 0.4 to 5.8 nM.
